According to patent publication US20230059341A1:

Target: Neonatal Fc Receptor (FcRn) (UniProt P55899)
Assay: FcRn binding assay, BIACORE (SPR)

A Kd of 2340 nM was found for “Dostarlimab, base degraded, pH 9.0, 40° C., 1 week (antibody)” in this work.
